Results taken from patent publication US20210347870A1.

B1: C2G4 scFv protein (scFv)
scFv: EVQLLESGGGLVQPGGSLRLSCAASGFTFSNYAMSWVRQAPGKGLEWVSGIPPDSGSKYYADSVRGRFTVSRDNSKNTLYLQMNSLRAEDTAVYYCAKNMLSFDYWGQGTLVTVSSGGGGSGGGGSGGGGSQSVLTQPPSASGTPGQRVTISCTGSSSNIGSNAVSWYQQLPGTAPKLLIYYNSKRPSGVPDRFSGSKSGTSASLAISGLRSEDEADYYCGSWDPSLNGYVFGGGTKVTVLG
B2: MS501 scFv protein (scFv)
scFv: EVQLLESGGGLVQPGGSLRLSCAASGFTFSNYAMSWVRQAPGKGLEWVSGIYPDSGSTYYADSVKGRFTISRDNSKNTLYLQMNSLRAEDTAVYYCARNIYTFDYWGQGTLVTVSSGGGGSGGGGSGGGGSQSVLTQPPSASGTPGQRVTISCSGSSSNIGSNAVSWYQQLPGTAPKLLIYYNNQRPSGVPDRFSGSKSGTSASLAISGLRSEDEADYYCGSWDSSLSGYVFGGGTKLTVLG
B3: MS503 scFv protein (scFv)
scFv: EVQLLESGGGLVQPGGSLRLSCAASGFTFSNYAMSWVRQAPGKGLEWVSSIYPGDGSTYYADSVKGRFTISRDNSKNTLYLQMNSLRAEDTAVYYCAKNAFTFDYWGQGTLVTVSSGGGGSGGGGSGGGGSQSVLTQPPSASGTPGQRVTISCSGSSSNIGSNAVSWYQQLPGTAPKLLIYYNSHRPSGVPDRFSGSKSGTSASLAISGLRSEDEADYYCGTWDSSLSGYVFGGGTKLTVLG

The binders below were run against mesothelin on MIA PaCa2-MSLN cells (mesothelin-overexpressing human pancreatic cancer cell line) (UniProt Q13421) (assay: flow cytometry: 1 µg scFv on 1x10^5 MIA PaCa2-MSLN cells, anti-6X His tag antibody detection).
Sequence of UniProt Q13421 (Q13421 other isoform, or with tags, fused parts or gaps limits assumed): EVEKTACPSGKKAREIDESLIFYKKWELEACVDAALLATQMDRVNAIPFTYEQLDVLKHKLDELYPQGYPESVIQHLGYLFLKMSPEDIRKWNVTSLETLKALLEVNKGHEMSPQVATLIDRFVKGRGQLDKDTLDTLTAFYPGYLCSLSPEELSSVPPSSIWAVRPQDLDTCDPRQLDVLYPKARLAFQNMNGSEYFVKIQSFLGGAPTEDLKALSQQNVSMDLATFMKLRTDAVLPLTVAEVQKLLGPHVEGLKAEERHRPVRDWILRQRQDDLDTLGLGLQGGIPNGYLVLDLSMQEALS

Percent bound, > 68%:
B1
B2
B3
